Among the data in patent publication US20230312753A1 (IMMUNORIZON, published 2023) are EC50 values, retold here.

In this experiment the target is T1, NKG2A-CD94-ECD-hFc (human, UniProt P26715 94-233; Q13241 32-179, limits assumed).
T1 construct: extracellular domain; Lot 20200724002, 'provided by CP'; the two-chain layout here is only the reading of the name; also called human NKG2A (recombinant); NKG2A antigen; not shown: human Fc (hFc)
The experiment in a line: ELISA on coated NKG2A-CD94-ECD-hFc (FIG. 43C). On the procedure:
Methods: ELISA binding of Tribody/ProTribody antibody constructs to antigens: Dilute target protein (hCD3epsilon-His (cat # 10977-H08S, supplier Sino Biological); h5T4-His (cat# 19845-H08H, supplier Sino Biological); NKG2A-CD94-ECD-hFc, Lot:20200724002, provided by CP; or NKG2D-ECD-hFc, Lot: 20200413002, provided by CP) into PBS with final concentration of 0.01 µg/mL for hCD3epsilon-His, 0.3 µg/mL for h5T4-His, 1 µg/mL for NKG2A-CD94-ECD-hFc and 0.7 µg/mL for hNKG2D-ECD-hFc respectively and coat 100 µL/well on ELISA plate (cat: 9018, supplier Corning) respectively. Incubate O/N, 4° C. The plates were blocked with 250 µL 1% BSA in PBST for 1 hr at 37° C.Wash 4 times with PBST. All the washes are done using Biotek (Elx 405). All the Tribody set antibodies were diluted to 400 nM and make 4-fold serially dilutions (12 points, including 0 point). Add 100 µL/well diluted antibody constructs solution to plate, incubate for 1 hr at 37° C.Wash 4 times with PBST. Add 100 µL/well anti-human kappa light chain-HRP (1:10000), incubate for 0.5 hr at 37° C. Wash 4 times with PBST. 100 µL/well of TMB substrate was added and incubated at room temperature for 5 min. 100 µL/well of 1N HCl to terminate reaction. Plates were read using ELISA plate reader at 450 nm wavelength (instrunet SpectraMax M5e). Data Analysis was performed using Graphpad prism 5 software by using nonlinear regression (curve fit): log (agonist) vs. response, agonist is antibody concentration (nM) and response is OD value.

Usually EC50 stands for the concentration that produces a half-maximal response. High values mean weaker potency, low ones greater potency.

T1 sequence (P26715 94-233 limits assumed, chain 1 of 2): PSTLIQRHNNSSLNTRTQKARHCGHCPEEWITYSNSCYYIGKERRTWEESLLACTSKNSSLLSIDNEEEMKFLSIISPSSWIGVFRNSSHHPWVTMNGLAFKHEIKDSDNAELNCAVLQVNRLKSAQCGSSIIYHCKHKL
T1 sequence (Q13241 32-179 limits assumed, chain 2 of 2): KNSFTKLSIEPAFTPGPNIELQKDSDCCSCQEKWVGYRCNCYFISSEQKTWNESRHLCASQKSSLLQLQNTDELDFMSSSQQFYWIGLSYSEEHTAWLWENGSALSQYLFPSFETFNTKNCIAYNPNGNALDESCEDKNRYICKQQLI

B1: IM-1062 Tribody (other)
heavy: GGSGGSEVQLVESGGGLVQPGGSLRLSCAASGFTFNTYAMNWVRQAPGKGLEWVARIRSKYNNYATYYADSVKDRFTISRDDSKNTLYLQMNSLRAEDTAVYYCVRHGNFGNSYVSWFAYWGQGTMVTVSSASTKGPSVFPLAPSSKSTSGGTAALGCLVKDYFPEPVTVSWNSGALTSGVHTFPAVLQSSGLYSLSSVVTVPSSSLGTQTYICNVNHKPSNTKVDKRVEPKSCPPCGGGGSDIQMTQSPSSLSASVGDRVTITCRASENIYSYLAWYQQKPGKAPKLLIYNAKTLAEGVPSRFSGSGSGTDFTLTISSLQPEDFATYYCQHHYGTPRTFGGGTKVEIKGGGGSGGGGSGGGGSGGGGSQVQLVQSGAEVKKPGASVKVSCKASGYTFTSYWMNWVRQAPGQGLEWMGRIDPYDSETHYAQKLQGRVTMTTDTSTSTAYMELRSLRSDDTAVYYCARGGYDFDVGTLYWFFDVWGQGTTVTVSS
light: GGSGGSQAVVTQEPSLTVSPGGTVTLTCRSSTGAVTTSNYANWVQQKPGQAPRGLIGGTNKRAPGTPARFSGSLLGGKAALTLSGVQPEDEAEYYCALWYSNLWVFGGGTKLTVLGQPKAAPSVTLFPPSSEELQANKATLVCLISDFYPGAVTVAWKADSSPVKAGVETTTPSKQSNNKYAASSYLSLTPEQWKSHRSYSCQVTHEGSTVEKTVAPTECPPCSGGGSDIQMTQSPSSLSASVGDRVTITCRASQGISNYLAWFQQKPGKAPKSLIYRANRLQSGVPSRFSGSGSGTDFTLTISSLQPEDVATYYCLQYDDFPWTFGQGTKLEIKGGGGSGGGGSGGGGSGGGGSQVQLVQSGAEVKKPGASVKVSCKASGYTFTSFWMHWVRQAPGQGLEWMGRIDPNRGGTEYNEKAKSRVTMTADKSTSTAYMELSSLRSEDTAVYYCAGGNPYYPMDYWGQGTTVTVSS
notes: Tri-specific antibody (Tribody): anti-CD3 epsilon Fab with an anti-5T4 scFv and an anti-NKG2A scFv, no regulatory domain; also called the Tribody format
For B1, it took 4.4 nM to reach a half-maximal effect (EC50).
